The record followed here is paper PMC8445998 (Nature Communications, 2021).

What all share (settings): both partners purified
Assay [1] addresses T1, His6-TF-SUMO-OsCOI1b (rice, UniProt Q60EH4 1-597).
T1 construct: also called His6-OsCOI1b
T1 sequence (looked up): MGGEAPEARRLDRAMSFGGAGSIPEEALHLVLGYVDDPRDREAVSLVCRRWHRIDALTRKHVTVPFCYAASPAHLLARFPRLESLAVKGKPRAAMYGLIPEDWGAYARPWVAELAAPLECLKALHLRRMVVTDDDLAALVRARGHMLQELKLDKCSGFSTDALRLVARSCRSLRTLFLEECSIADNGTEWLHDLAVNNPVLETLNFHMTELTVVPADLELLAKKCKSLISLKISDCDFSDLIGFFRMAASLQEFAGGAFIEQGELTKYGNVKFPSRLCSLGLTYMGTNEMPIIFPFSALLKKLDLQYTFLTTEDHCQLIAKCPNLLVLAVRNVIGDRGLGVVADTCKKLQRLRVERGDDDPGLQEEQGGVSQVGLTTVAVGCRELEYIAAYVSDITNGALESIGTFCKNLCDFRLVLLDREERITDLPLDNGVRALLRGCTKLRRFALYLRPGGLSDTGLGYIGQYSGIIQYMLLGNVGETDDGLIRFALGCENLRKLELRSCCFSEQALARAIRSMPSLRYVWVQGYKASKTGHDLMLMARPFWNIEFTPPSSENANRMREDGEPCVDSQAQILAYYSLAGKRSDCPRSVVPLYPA
Put plainly: MST.

Assay [2] deals with T2, His6-TF-SUMO-tagged OsCOI1b^R10A (rice, UniProt Q60EH4 1-597, R10A).
T2 sequence (looked up): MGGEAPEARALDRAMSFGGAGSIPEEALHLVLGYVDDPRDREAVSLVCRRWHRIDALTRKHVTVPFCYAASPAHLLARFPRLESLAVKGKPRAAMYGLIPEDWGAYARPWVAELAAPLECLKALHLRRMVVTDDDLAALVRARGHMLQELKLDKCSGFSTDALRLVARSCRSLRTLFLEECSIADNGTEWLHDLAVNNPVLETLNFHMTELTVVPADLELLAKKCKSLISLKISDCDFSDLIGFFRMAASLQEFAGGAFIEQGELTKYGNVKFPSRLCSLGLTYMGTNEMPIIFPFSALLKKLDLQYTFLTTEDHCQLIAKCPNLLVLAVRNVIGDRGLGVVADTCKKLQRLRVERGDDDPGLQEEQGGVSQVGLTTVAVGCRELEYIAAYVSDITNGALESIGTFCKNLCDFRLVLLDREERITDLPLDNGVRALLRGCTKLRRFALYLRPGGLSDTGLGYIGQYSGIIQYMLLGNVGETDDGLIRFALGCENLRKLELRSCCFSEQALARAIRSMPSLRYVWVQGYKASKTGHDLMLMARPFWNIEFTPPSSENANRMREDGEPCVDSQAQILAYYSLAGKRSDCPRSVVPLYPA
The assay is described as follows: pull-down.

For assay [3], the target named is T3, His6-TF-SUMO-tagged OsCOI1b^R9A (rice, UniProt Q60EH4 1-597, R9A).
T3 sequence (looked up): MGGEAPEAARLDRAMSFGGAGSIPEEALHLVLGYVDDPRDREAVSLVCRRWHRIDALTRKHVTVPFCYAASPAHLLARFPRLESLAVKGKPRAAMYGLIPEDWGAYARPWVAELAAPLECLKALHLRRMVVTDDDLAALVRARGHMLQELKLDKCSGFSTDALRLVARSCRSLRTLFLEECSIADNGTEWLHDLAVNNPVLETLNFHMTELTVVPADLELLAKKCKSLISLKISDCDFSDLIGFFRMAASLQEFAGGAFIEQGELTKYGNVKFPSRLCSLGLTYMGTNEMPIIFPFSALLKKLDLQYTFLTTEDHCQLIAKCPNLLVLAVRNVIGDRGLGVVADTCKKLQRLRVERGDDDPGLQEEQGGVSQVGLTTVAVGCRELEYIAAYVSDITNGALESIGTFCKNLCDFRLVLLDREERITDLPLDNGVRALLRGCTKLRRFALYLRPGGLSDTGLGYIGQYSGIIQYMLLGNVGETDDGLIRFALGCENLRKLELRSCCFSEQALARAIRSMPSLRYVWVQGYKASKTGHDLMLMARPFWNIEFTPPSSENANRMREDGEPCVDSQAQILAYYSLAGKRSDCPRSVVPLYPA
The assay is described as follows: pull-down.

Assay [4] concerns the target T4, His6-TF-SUMO-tagged OsCOI1b^R13A (rice, UniProt Q60EH4 1-597, R13A).
T4 sequence (looked up): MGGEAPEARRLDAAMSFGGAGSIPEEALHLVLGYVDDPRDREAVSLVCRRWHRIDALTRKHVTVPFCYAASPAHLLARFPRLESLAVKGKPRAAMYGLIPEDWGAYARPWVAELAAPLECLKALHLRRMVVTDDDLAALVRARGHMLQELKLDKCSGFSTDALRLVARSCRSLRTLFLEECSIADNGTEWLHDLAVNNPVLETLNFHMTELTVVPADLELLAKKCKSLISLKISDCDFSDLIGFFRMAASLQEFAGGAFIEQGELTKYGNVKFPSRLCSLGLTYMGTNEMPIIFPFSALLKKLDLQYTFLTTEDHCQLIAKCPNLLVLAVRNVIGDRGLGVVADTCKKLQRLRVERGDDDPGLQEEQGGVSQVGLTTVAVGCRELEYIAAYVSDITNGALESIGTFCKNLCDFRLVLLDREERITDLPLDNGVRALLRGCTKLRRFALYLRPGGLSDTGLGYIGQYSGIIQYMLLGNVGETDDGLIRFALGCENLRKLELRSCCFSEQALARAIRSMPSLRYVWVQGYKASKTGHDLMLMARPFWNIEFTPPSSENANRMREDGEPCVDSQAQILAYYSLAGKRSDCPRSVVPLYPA
The assay is described as follows: pull-down.

B1: His6-OSK1^S53D (natural protein, rice, UniProt Q6PL11 1-173, looked up)
chain: MAAEGEKKMITLKSSDGEEFEVEEAVAMESQTIRHMIEDDCADNGIPLPNVNDKILSKVIEYCNKHVHAAAAAASKAADDAASAAAAVPPPSGEDLKNWDADFVKVDQATLFDLILAANYLNIKGLLDLTCQTVADMIKGKTPEEIRKTFNIKNDFTPEEEEEIRRENQWAFE
As to B1, the equilibrium dissociation constant (Kd) (commonly a measure of binding affinity in units of concentration) in assay [1] worked out at 12.7 nM.

B2: GST-OSK1^S53D (natural protein, rice, UniProt Q6PL11 1-173, looked up)
chain: MAAEGEKKMITLKSSDGEEFEVEEAVAMESQTIRHMIEDDCADNGIPLPNVNDKILSKVIEYCNKHVHAAAAAASKAADDAASAAAAVPPPSGEDLKNWDADFVKVDQATLFDLILAANYLNIKGLLDLTCQTVADMIKGKTPEEIRKTFNIKNDFTPEEEEEIRRENQWAFE
notes: not shown: GST, N-terminal, kept
For the molecule B2, the binding result in assay [2], in assay [3] and in assay [4] was “binds” throughout.

B3: His6-OSK1 (natural protein, rice, UniProt Q6PL11 1-173, looked up)
chain: MAAEGEKKMITLKSSDGEEFEVEEAVAMESQTIRHMIEDDCADNGIPLPNVNSKILSKVIEYCNKHVHAAAAAASKAADDAASAAAAVPPPSGEDLKNWDADFVKVDQATLFDLILAANYLNIKGLLDLTCQTVADMIKGKTPEEIRKTFNIKNDFTPEEEEEIRRENQWAFE
B3 came in with a dissociation constant Kd in assay [1] of 53.8 nM.

B4: GST-OSK1 (natural protein, rice, UniProt Q6PL11 1-173, looked up)
chain: MAAEGEKKMITLKSSDGEEFEVEEAVAMESQTIRHMIEDDCADNGIPLPNVNSKILSKVIEYCNKHVHAAAAAASKAADDAASAAAAVPPPSGEDLKNWDADFVKVDQATLFDLILAANYLNIKGLLDLTCQTVADMIKGKTPEEIRKTFNIKNDFTPEEEEEIRRENQWAFE
notes: as for B2
B4: the binding result in assay [2], in assay [3] and in assay [4] was “binds” each time.
